T1: murine CD25 (IL-2 receptor alpha chain) on mouse T cells (mouse, UniProt P01590 22-268)
T1 construct: whole, on cells; Endogenous CD25 on cultured mouse Tregs and Tcons; also called IL-2Rα; surface CD25
T1 sequence (looked up): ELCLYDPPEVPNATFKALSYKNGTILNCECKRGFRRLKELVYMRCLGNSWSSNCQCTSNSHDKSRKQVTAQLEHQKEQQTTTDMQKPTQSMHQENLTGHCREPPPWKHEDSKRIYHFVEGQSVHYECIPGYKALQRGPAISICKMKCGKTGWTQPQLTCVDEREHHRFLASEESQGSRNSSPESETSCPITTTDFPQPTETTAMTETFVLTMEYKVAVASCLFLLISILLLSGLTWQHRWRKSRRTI


Assays:
[1] = target: TGF-β produced by cells in the culture (mouse) (UniProt Q61315); assay: cell-based or functional assay
[2] = target: T1, murine CD25 (IL-2 receptor alpha chain) …; assay: flow cytometry on 2D2-FIG Tregs; loss of APC-conjugated PC61 staining

Sequence of TGF-β produced by cells in the culture (mouse) (Q61315 whole entry): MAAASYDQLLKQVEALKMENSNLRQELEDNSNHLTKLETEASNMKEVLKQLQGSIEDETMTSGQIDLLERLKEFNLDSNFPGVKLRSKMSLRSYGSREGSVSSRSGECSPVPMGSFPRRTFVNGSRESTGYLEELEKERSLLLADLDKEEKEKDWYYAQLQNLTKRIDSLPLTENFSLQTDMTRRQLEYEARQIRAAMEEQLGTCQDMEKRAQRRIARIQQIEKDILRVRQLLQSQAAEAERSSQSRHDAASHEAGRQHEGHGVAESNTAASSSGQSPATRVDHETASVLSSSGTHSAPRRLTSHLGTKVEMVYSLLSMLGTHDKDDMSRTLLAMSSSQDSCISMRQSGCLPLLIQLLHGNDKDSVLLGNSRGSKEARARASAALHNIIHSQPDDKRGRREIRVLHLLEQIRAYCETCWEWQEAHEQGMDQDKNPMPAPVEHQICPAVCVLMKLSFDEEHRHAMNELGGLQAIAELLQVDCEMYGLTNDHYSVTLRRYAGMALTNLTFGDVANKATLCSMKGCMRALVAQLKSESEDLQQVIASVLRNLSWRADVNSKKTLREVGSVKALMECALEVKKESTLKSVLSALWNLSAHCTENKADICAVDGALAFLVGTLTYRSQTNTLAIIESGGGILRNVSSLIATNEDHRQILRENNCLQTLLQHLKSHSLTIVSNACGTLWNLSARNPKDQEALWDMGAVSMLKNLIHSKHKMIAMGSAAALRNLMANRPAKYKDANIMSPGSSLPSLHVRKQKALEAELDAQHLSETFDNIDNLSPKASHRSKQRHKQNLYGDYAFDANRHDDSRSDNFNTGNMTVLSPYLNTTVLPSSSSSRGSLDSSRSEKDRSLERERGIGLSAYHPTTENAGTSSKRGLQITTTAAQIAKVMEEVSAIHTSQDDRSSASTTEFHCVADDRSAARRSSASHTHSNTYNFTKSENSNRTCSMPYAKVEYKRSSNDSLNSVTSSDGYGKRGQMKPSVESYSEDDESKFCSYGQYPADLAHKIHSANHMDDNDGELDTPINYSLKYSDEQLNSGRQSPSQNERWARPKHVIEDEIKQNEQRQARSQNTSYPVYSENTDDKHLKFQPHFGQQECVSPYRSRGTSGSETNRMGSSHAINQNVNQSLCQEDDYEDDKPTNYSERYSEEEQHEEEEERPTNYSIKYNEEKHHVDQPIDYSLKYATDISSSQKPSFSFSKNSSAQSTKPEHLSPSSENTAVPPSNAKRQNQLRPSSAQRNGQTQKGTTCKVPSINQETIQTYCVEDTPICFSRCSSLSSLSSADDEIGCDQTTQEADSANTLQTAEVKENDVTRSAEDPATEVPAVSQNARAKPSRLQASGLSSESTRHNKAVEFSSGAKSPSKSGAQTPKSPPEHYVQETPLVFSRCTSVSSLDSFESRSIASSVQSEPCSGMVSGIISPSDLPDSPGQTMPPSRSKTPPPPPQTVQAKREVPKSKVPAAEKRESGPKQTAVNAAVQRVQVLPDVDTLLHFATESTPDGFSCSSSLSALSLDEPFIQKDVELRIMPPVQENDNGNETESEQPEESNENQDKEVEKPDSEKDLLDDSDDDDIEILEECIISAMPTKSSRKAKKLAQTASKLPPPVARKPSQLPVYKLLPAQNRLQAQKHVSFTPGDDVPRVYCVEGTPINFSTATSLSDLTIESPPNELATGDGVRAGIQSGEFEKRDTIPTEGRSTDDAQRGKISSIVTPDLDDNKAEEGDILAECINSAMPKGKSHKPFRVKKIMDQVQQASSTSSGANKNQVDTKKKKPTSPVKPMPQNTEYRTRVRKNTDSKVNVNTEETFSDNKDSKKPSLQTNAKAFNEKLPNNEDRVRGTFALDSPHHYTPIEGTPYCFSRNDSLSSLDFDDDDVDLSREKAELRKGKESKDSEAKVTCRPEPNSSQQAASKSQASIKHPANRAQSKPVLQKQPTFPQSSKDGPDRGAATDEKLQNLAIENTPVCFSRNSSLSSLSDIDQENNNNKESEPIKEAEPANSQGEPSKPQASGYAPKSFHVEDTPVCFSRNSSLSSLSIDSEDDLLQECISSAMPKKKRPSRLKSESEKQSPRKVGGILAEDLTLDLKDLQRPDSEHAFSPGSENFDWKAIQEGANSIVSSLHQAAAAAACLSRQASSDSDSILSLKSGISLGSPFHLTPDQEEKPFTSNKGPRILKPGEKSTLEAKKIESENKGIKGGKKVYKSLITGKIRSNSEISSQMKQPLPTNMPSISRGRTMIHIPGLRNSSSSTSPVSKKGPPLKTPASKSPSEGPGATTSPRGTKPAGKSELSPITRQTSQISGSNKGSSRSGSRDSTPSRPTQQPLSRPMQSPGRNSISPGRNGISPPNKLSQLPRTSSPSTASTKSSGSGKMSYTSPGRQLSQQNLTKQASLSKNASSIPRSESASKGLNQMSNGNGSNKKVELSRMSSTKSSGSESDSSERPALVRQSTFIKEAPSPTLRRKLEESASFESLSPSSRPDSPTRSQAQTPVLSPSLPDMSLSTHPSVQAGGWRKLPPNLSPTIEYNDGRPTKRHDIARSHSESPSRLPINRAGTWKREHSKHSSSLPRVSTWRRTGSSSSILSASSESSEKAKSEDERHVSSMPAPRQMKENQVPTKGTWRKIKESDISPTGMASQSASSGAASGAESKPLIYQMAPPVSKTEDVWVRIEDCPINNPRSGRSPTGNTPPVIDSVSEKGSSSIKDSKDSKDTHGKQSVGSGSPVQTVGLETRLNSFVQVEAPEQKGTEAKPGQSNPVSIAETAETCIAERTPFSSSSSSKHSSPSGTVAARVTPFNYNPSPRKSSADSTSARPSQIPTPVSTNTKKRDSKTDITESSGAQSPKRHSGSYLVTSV

FOXP3+ Treg percentages during secondary activation (1D11 at 50 µg/ml) [1] [%]	binding result [2]	Molecule
< 50	–	1D11.16.8 anti-mouse-TGF-β1/2/3 monoclonal antibody (mouse IgG1)
–	binds	PC61 anti-CD25 monoclonal antibody (PC61-5.3 hybridoma, rat IgG1, lambda) (antibody, V domains shown, also called PC61 mAb; anti-CD25 PC61 mAb) VH: QVQLQQSGAELVRPGTSVKLSCKVSGDTITAYYIHFVKQRPGQGLEWIGRIDPEDDSTEYAEKFKNKATITANTSSNTAHLKYSRLTSEDTATYFCTTDNMGATEFVYWGQGTLVTVSS VL: QVVLTQPKSVSASLESTVKLSCKLNSGNIGSYYMHWYQQREGRSPTNLIYRDDKRPDGAPDRFSGSIDISSNSAFLTINNVQTEDEAMYFCHSYDGRMYIFGGGTKLTVLG
